Test results: paper PMC4676722 (PLoS Genetics, 2015)
Where no end group is shown, it is not given here. [ ]: non-standard residue; d: D form. pY = N[C@@H](Cc1ccc(OP(=O)(O)O)cc1)C(=O)O

Biological target: T1, recombinant ovine wild type SOCS2 (Suppressor of Cytokine Signaling 2) (sheep (ovine), UniProt A0ACI6S499 1-198)
T1 construct: also called rOvSOCS2 WT; SOCS2-WT
T1 sequence (looked up): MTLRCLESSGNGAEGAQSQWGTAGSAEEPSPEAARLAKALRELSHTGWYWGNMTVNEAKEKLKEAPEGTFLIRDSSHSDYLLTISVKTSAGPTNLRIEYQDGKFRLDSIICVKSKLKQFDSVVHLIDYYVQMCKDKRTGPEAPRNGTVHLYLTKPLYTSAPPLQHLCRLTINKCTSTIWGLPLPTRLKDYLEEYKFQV
Experiment: SPR; BIAcore T200, single-cycle kinetics; biotinylated GHR pY-peptide immobilised on SA chip (75 RU), scramble peptide as reference; five injections of SOCS2 protein 100 nM-8.1 μM, 120 s each; 1:1 Langmuir fit; 25°C, HBS-EP buffer
Settings: both partners purified

PVPD[pY]TSIHIV (also: biotinylated, site not given here) [phosphorylated peptide from the growth hormone receptor (pY595 GHR), biotinylated] showed a koff of 0.0016 s⁻¹ and a kon of 828 M⁻¹ s⁻¹.
